Laboratory results as given in PMC3201810.

Target: Bacillus cereus ChbC (EIIC component of the diacetylchitobiose phosphotransferase system) (Bacillus cereus)
Assay: SEC-MALS

stoichiometry N: 2
Substance: Bacillus cereus ChbC (EIIC component of the diacetylchitobiose phosphotransferase system) (natural protein)
